Assay results: the supplement of paper PMC10567573

B1: NET1 (parent)
chain: IKRTIRVLDVNNQSFREQEEPSNK

Variants of: B1
Assay: protein stability index of a GFP-peptide fusion (GPS, HEK-293T) (PSI 1-6); higher = more stable
Conditions: c terminus: a fixed tail appended
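Note: lentivirally expressed fusions sorted by FACS into six bins by GFP to DsRed ratio, PSI derived from sequencing read proportions per bin multiplied by bin number.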

Point of comparison: IKRTIRVLDVNNQAFREQEEPSNK [S14A], protein stability index 3.02. Against it:
- IKRTIRVLDVTNQSFREQEEPSNK [N11T] — higher, 3.41
- IKRTIRVLDVWNQSFREQEEPSNK [N11W] — lower, 2.65
- IKRTIRVLDVPNQSFREQEEPSNK [N11P] — higher, 4.16
- IKRTIRVLDVCNQSFREQEEPSNK [N11C] — higher, 3.09
- IKRTIRVLDVMNQSFREQEEPSNK [N11M] — lower, 2.83
- IKRTIRVLDVGNQSFREQEEPSNK [N11G] — lower, 2.99
- IKRTIRVLDVENQSFREQEEPSNK [N11E] — higher, 4.51
- IKRTIRVLDVLNQSFREQEEPSNK [N11L] — lower, 2.26
- IKRTIRVLDVVNQSFREQEEPSNK [N11V] — higher, 3.56
- IKRTIRVLDVSNQSFREQEEPSNK [N11S] — higher, 4.22
- IKRTIRVLDVRNQSFREQEEPSNK [N11R] — higher, 4.41
- IKRTIRVLDVHNQSFREQEEPSNK [N11H] — higher, 3.62
- IKRTIRVLDVINQSFREQEEPSNK [N11I] — lower, 1.85
- IKRTIRVLDVDNQSFREQEEPSNK [N11D] — higher, 4.47
- IKRTIRVLDVANQSFREQEEPSNK [N11A] — higher, 4.48
- IKRTIRVLDVYNQSFREQEEPSNK [N11Y] — higher, 4.06
- IKRTIRVLDVFNQSFREQEEPSNK [N11F] — lower, 2.61
- IKRTIRVLDVKNQSFREQEEPSNK [N11K] — higher, 4.44
- IKRTIRVLDVQNQSFREQEEPSNK [N11Q] — higher, 4.34
- IKRTIRVLDYNNQSFREQEEPSNK [V10Y] — higher, 4.06
- IKRTIRVLDQNNQSFREQEEPSNK [V10Q] — higher, 4.03
- IKRTIRVLDMNNQSFREQEEPSNK [V10M] — higher, 4
- IKRTIRVLDTNNQSFREQEEPSNK [V10T] — higher, 4.23
- IKRTIRVLDHNNQSFREQEEPSNK [V10H] — higher, 4.23
- IKRTIRVLDPNNQSFREQEEPSNK [V10P] — higher, 3.21
- IKRTIRVLDNNNQSFREQEEPSNK [V10N] — higher, 4.46
- IKRTIRVLDLNNQSFREQEEPSNK [V10L] — higher, 3.85
- IKRTIRVLDGNNQSFREQEEPSNK [V10G] — higher, 4.22
- IKRTIRVLDSNNQSFREQEEPSNK [V10S] — higher, 3.85
- IKRTIRVLDKNNQSFREQEEPSNK [V10K] — higher, 4.35
- IKRTIRVLDRNNQSFREQEEPSNK [V10R] — higher, 4.04
- IKRTIRVLDINNQSFREQEEPSNK [V10I] — higher, 3.87
- IKRTIRVLDVNNQSFRYQEEPSNK [E17Y] — lower, 2.44
- IKRTIRVLDVNNQSFRAQEEPSNK [E17A] — higher, 3.6
- IKRTIRVLDVNNQSFRFQEEPSNK [E17F] — lower, 2.8
- IKRTIRVLDVNNQSFRPQEEPSNK [E17P] — lower, 2.92
- IKRTIRVLDVNNQSFRVQEEPSNK [E17V] — lower, 2.8
- IKRTIRVLDVNNQSFRCQEEPSNK [E17C] — higher, 3.27
- IKRTIRVLDVNNQSFRTQEEPSNK [E17T] — higher, 3.03
- IKRTIRVLDVNNQSFRDQEEPSNK [E17D] — higher, 3.25
- IKRTIRVLDVNNQSFRHQEEPSNK [E17H] — higher, 3.59
- IKRTIRVLDVNNQSFRKQEEPSNK [E17K] — higher, 3.11
- IKRTIRVLDVNNQSFRGQEEPSNK [E17G] — higher, 3.29
- IKRTIRVLDVNNQSFRIQEEPSNK [E17I] — higher, 3.22
- IKRTIRVLDVNNQSFRMQEEPSNK [E17M] — lower, 2.92
- IKRTIRVLDVNNQSFRWQEEPSNK [E17W] — lower, 1.74
- IKRTIRVLDVNNQSFRNQEEPSNK [E17N] — higher, 3.16
- IKRTIRVLDVNNQSFRQQEEPSNK [E17Q] — higher, 3.14
- IKRTIRVLDVNNQSFRSQEEPSNK [E17S] — higher, 3.16
- IKRTIRVLDVNNQSFRRQEEPSNK [E17R] — higher, 3.42
- IKRTIRVLDVNNQSFRLQEEPSNK [E17L] — higher, 3.15
- IKRTIRVLDVNTQSFREQEEPSNK [N12T] — higher, 3.3
- IKRTIRVLDVNIQSFREQEEPSNK [N12I] — higher, 3.51
- IKRTIRVLDVNCQSFREQEEPSNK [N12C] — higher, 3.16
- IKRTIRVLDVNFQSFREQEEPSNK [N12F] — lower, 2.7
- IKRTIRVLDVNQQSFREQEEPSNK [N12Q] — higher, 4.08
- IKRTIRVLDVNWQSFREQEEPSNK [N12W] — lower, 2.63
- IKRTIRVLDVNMQSFREQEEPSNK [N12M] — higher, 3.29
- IKRTIRVLDVNDQSFREQEEPSNK [N12D] — higher, 4.21
- IKRTIRVLDVNVQSFREQEEPSNK [N12V] — lower, 2.97
- IKRTIRVLDVNPQSFREQEEPSNK [N12P] — higher, 3.41
- IKRTIRVLDVNRQSFREQEEPSNK [N12R] — higher, 3.14
- IKRTIRVLDVNLQSFREQEEPSNK [N12L] — higher, 3.25
- IKRTIRVLDVNYQSFREQEEPSNK [N12Y] — higher, 3.21
- IKRTIRVLDVNGQSFREQEEPSNK [N12G] — higher, 4.14
- IKRTIRVLDVNEQSFREQEEPSNK [N12E] — higher, 3.98
- IKRTIRVLDVNHQSFREQEEPSNK [N12H] — higher, 3.83
- IKRTIRVLDVNSQSFREQEEPSNK [N12S] — lower, 2.82
- IKRTIRVLDVNKQSFREQEEPSNK [N12K] — lower, 2.72
- IKRTIRVLDVNAQSFREQEEPSNK [N12A] — higher, 3.38
- IKRTIRVLDVNNQRFREQEEPSNK [S14R] — higher, 3.78
- IKRTIRVLDVNNQFFREQEEPSNK [S14F] — lower, 2.56
- IKRTIRVLDVNNQGFREQEEPSNK [S14G] — higher, 4.17
- IKRTIRVLDVNNQPFREQEEPSNK [S14P] — lower, 2.9
- IKRTIRVLDVNNQWFREQEEPSNK [S14W] — lower, 3.01
- IKRTIRVLDVNNQNFREQEEPSNK [S14N] — higher, 3.47
- IKRTIRVLDVNNQHFREQEEPSNK [S14H] — higher, 3.09
- IKRTIRVLDVNNQTFREQEEPSNK [S14T] — higher, 3.52
- IKRTIRVLDVNNQDFREQEEPSNK [S14D] — higher, 3.68
- IKRTIRVLDVNNQMFREQEEPSNK [S14M] — higher, 3.21
- IKRTIRVLDVNNQCFREQEEPSNK [S14C] — higher, 3.27
- IKRTIRVLDVNNQKFREQEEPSNK [S14K] — higher, 3.24
- IKRTIRVLDVNNQQFREQEEPSNK [S14Q] — higher, 3.91
- IKRTIRVLDVNNQLFREQEEPSNK [S14L] — lower, 2.62
- IKRTIRVLDVNNQIFREQEEPSNK [S14I] — higher, 3.64
- IKRTIRVLDVNNQEFREQEEPSNK [S14E] — higher, 3.79
- IKRTIRVLDVNNQVFREQEEPSNK [S14V] — higher, 3.47
- IKRTIRVLDVNNQYFREQEEPSNK [S14Y] — lower, 2.6
- IKRTIRVLDVNNQSFREDEEPSNK [Q18D] — higher, 4.15
- IKRTIRVLDVNNQSFREREEPSNK [Q18R] — higher, 3.1
- IKRTIRVLDVNNQSFREAEEPSNK [Q18A] — lower, 2.27
- IKRTIRVLDVNNQSFRENEEPSNK [Q18N] — higher, 3.52
- IKRTIRVLDVNNQSFRECEEPSNK [Q18C] — higher, 3.09
